{
  "source": "paper PMC12005531",
  "about": "“Structure of the scaffolding protein and portal within the bacteriophage P22 procapsid provides insights into the self-assembly process” (PLOS Biology, 2025)",
  "proteins": {"B1": {"name": "bacteriophage P22 scaffolding protein gp8 (natural protein, UniProt P26748 1-303, looked up)", "chain": "MEPTTEIQATEDLTLSGDHAAASADSLVVDNANDNAGQEEGFEIVLKDDETAPKQDPAKNAEFARRRIERKRQRELEQQMEAVKRGELPESLRVNPDLPPQPDINAYLSEEGLAKYDYDNSRALAAFNAANTEWLMKAQDARSNAVAEQGRKTQEFTQQSAQYVEAARKHYDAAEKLNIPDYQEKEDAFMQLVPPAVGADIMRLFPEKSAALMYHLGANPEKARQLLAMDGQSALIELTRLSERLTLKPRGKQISSAPPADQPITGDVSAANKDAIRKQMDAAASKGDVETYRKLKAKLKGIR", "notes": "scaffolding protein gp8 of bacteriophage P22, 303 amino acid residues, 33.6 kDa; domains: N-loop 1-57, base 58-84 and 163-245, column 85-162, C-loop 246-267, hook 268-303; the N-loop was not resolved; Native protein within the procapsid; About 250-300 copies per procapsid, from cited work; also called SP; P22 SP; source: phage P22 propagated in S. typhimurium; inside procapsids purified by CsCl …"}},
  "molecular_target": "the molecule itself",
  "assay": "cryo-EM structure; P22 procapsids (upper CsCl band) from infected S. typhimurium, in phage buffer (10 mM Tris-HCl, 1 mM MgCl2, pH 7.4); symmetry-mismatch reconstruction at about 9 Å and local reconstructions (portal 3.0 Å with C12, nodules 4.9 Å, SP trimer 6.9 Å, SP tetramer 6.9 Å, C-loop 6.7 Å); AlphaFold2 model of gp8 fitted into the maps",
  "note": "“And” between values parts separate entries of the source, which are not always exact repeats. Equal entries are not always repeated.",
  "data": [
    {"protein": "B1", "values": [
      {"measurement": "stoichiometry N", "result": "2 and 3 and 4"}
    ]}
  ]
}
